Experimental findings from PMC3663649, “Nucleosomal DNA binding drives the recognition of H3K36-methylated nucleosomes by the PSIP1-PWWP domain” (Epigenetics & Chromatin, 2013) are described below.

Like-named read-outs stand apart in the source and are kept apart here.

The target in data set [1] is H3KC36me3 nucleosomes (recombinant MLA nucleosomes reconstituted on 601 DNA) (Drosophila) (UniProt P02299). Briefly: native gel or EMSA; 1.5 or 3 pmol reconstituted nucleosome with 0, 0.5, 1, 2 and 3 molar equivalents of glutathione agarose purified GST-PWWP protein; 0.2X TBE, 4°C, native 5% gel, ethidium bromide; band densities fitted to a 2:1 model.
The test system of data set [2] is PSIP1-PWWP (human). Briefly: NMR methyl-TROSY line shape fit. Conditions: 308 K; 1:2 nucleosome:PWWP model; koff 500 s-1; histone H3KC36me3 (methyl-lysine analogue); EMSA: 0.2X TBE, 4 C, 1.5 or 3 pmol nucleosome in 8 uL, up to 3 molar equivalents of protein, native 5% gel; NMR: 293 K (DNA titration), 308 K (nucleosome …).
In a further data set the test system is GST-PSIP1-PWWP (human). Briefly: EMSA. Particulars: histone H3KC36me3 (methyl-lysine analogue); EMSA: 0.2X TBE, 4 C, 1.5 or 3 pmol nucleosome in 8 uL, up to 3 molar equivalents of protein, native 5% gel; NMR: 293 K (DNA titration), 308 K (nucleosome …).
The target of data set [3] is PSIP1-PWWP domain (residues 3 to 100, GST removed by thrombin) (human) (UniProt O75475). Briefly: NMR titration; 1H-15N HSQC of 0.3 mM PWWP, peptide added; 20 mM NaPi pH 7.0, 100 mM NaCl, 293 K, 600 MHz; chemical shift perturbation curves fitted in fast exchange.
PSIP1-PWWP domain (residues 3 to 100, GST removed by thrombin) (human), sequence (O75475 3-100): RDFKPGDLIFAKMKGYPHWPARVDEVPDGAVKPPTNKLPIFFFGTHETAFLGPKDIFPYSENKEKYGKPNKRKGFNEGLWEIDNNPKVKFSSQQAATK
Data set [4] addresses H3KC36me3 nucleosomes (recombinant MLA nucleosomes reconstituted on 601 DNA) (Drosophila) (UniProt P02299).
For data set [5], the system named is PSIP1-PWWP (human). Briefly: NMR titration (1H-15N HSQC CSP). Conditions: EMSA: 0.2X TBE, 4 C, 1.5 or 3 pmol nucleosome in 8 uL, up to 3 molar equivalents of protein, native 5% gel; NMR: 293 K (DNA titration), 308 K (nucleosome …).

GST-PWWP (PSIP1-PWWP domain, residues 3 to 100, GST fusion), sequence (O75475 3-100): as above
PSIP1-PWWP domain (residues 3 to 100, GST removed by thrombin), sequence (O75475 3-100): as above

As for “GST-PWWP (PSIP1-PWWP domain, residues 3 to 100, GST fusion) (from UniProt O75475 3-100) (domain or fragment)”, the dissociation constant (Kd) in data set [1] amounted to 0.5 µM.

As to H3KC36me3 MLA nucleosome on 601 DNA, the Kd stood at 1.5 µM in the data set on PSIP1-PWWP (human) [2] and 0.5 µM in the data set with GST-PSIP1-PWWP (human). H3KC36me3 peptide (NMR titration): in data set [3], the dissociation constant (Kd) came to 11000 µM.

Take “PSIP1-PWWP domain (residues 3 to 100, GST removed by thrombin) (from UniProt O75475 3-100) (domain or fragment)”: in data set [4], the Kd was found to be 1.5 µM. Take SRE-DNA dsDNA fragment: the Kd with PSIP1-PWWP (human) [5] was 150 µM.
